Test results as given in patent US20020012945A1, “METHOD AND REAGENT FOR THE DETECTION OF APOPTOTIC CELLS AND OF A PROTEASE ACTIVATED DURING APOPTOSIS” (priority 1998, published 2002).
* marks the point of attachment. Dnp = O=[N+]([O-])c1ccc(*)c([N+](=O)[O-])c1; Mca = COc1ccc2c(CC(=O)*)cc(=O)oc2c1

How the values were obtained:
caspase 3 [1] = experiment: Caspase 3 activation in camptothecin-treated U937 cells, antibody capture and Ac-DEVD-AFC cleavage; type: cell-based, human; settings: U937 5×10^5 cells/ml, 4 μg/ml camptothecin, after 2 h
Description: In order to induce apoptosis in a cellular system, human cells (U937; human histiolytic lymphoma […]) were treated with camptothecin (Topoisomerase I inhibitor, chemotherapeutic agent). […] In order to detect the protease activated by apoptosis (caspase 3), ca. 10^6 cells were withdrawn from the treated cell culture and lysed in lysis buffer (50 mM NaPO4, 10 mM NaCl, 1 mM […], 0.25% (w/v) Nonidet P40, 0.3 mM EDTA; pH 7.8) on ice. The lysate is then contacted with an antibody directed against caspase 3 which is coupled to a solid phase and binds caspase 3 from the lysate for the specific caspase 3 analysis. After removing the supernatant (contains all unspecific components and enzymes), a substrate (50 μM Ac-DEVD-AFC) is added and its caspase 3 mediated substrate conversion is measured by the formation of the fluorescent coumarin cleavage product. After subtraction of the blank value (self fluorescence of the substrate without lysate addition), the kinetic course of the caspase 3 activity can be shown graphically (FIG. 1).

caspase 3 [2] = molecular target: T1, caspase 3 (Homo sapiens, UniProt P42574); experiment: Selection of the optimal fluorescent substrate; type: biochemical
T1 construct: endogenous in cells; host or cells: cell lysates with and without camptothecin induction (cell model U937/CAM)
T1 sequence (P42574 29-175 limits assumed): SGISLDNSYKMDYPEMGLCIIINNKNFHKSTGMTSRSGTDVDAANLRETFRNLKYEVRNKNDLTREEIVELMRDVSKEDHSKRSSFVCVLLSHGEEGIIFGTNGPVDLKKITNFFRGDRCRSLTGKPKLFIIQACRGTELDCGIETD
T1 sequence (P42574 176-277 limits assumed): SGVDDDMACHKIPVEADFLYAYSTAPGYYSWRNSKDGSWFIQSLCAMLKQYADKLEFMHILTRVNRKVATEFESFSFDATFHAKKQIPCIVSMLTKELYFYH
Description: Three fluorescent substrates were tested. They are acetyl-Asp-Glu-Val-Asp-7-amido-4-trifluoromethyl-coumarin (AFC), acetyl-Asp-Glu-Val-Asp-7-amido-4-methyl-coumarin (AMC) and (7-methoxycoumarin-4-yl)acetyl-Asp-Glu-Val-Asp-Ala-Pro-Lys(2,4-dinitrophenyl)OH (Mca). The three substrates were compared with one another using the assessment criteria i) background ii) signal level and iii) signal ratio from ± induction.

Molecule	protease activity (caspase 3) (caspase 3 [1])	signal level (caspase 3 [2])	signal ratio from ± induction (caspase 3 [2])	background (self-fluorescence of the substrate without lysate addition) (caspase 3 [2])
CC[C@@]1(O)C(=O)OCc2c1cc1n(c2=O)Cc2cc3ccccc3nc2-1 [camptothecin]	increase of protease activity	–	–	–
(7-methoxycoumarin-4-yl)acetyl-Asp-Glu-Val-Asp-Ala-Pro-Lys(2,4-dinitrophenyl)OH (Mca-DEVDAPK(Dnp)-OH; SMILES COc1ccc2c(CC(=O)N[C@@H](CC(=O)O)C(=O)N[C@@H](CCC(=O)O)C(=O)N[C@H](C(=O)N[C@@H](CC(=O)O)C(=O)N[C@@H](C)C(=O)N3CCC[C@H]3C(=O)N[C@@H](CCCCNc3ccc([N+](=O)[O-])cc3[N+](=O)[O-])C(=O)O)C(C)C)cc(=O)oc2c1)	–	low signal levels	somewhat better ratio	–
acetyl-Asp-Glu-Val-Asp-7-amido-4-methyl-coumarin [AMC]	–	highest signals	–	relatively high
acetyl-Asp-Glu-Val-Asp-7-amido-4-trifluoromethyl-coumarin [AFC]	–	very good signal yield	optimal ratio	–
